In patent US20100216693A1, “COMPOSITIONS AND METHODS OF TREATING DIABETES” (priority 2005, published 2010):

How the values were obtained:
[1] = target: Human insulin (Actrapid) (human); assay: SPR (Biacore 3000), insulin 0.25-10 µM over C-terminally immobilized insulin; global fit, analyte with two sites competing for one site on the chip; slow off rate
[2] = target: Human insulin (Actrapid) (human); assay: SPR (Biacore 3000), insulin 0.25-10 µM over C-terminally immobilized insulin; global fit, analyte with two sites competing for one site on the chip; rapid off rate

Kd [1]: 2.71 µM
Kd [2]: 4.65 µM
Substance: Human insulin (Actrapid) (ligand; other documents disagree on this pair)
